# Test results taken from a protein production outcome set (Wang et al. 2014).
# Assay: label from the status in PepcDB records
# 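Also: failed if final PepcDB status was selected cloned or expressed and not failed if soluble or beyond.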
row,Sequence,protein production
1,MIIIELNKRQEHIIQIVKDHGPITGESIAAQLGLTRATLRPDLAILTMAGYLEARPRVGYFYTGKTGGQLLSEAVKKIKVQDYQSRPVVIDKNVSVYDAICTMFLEDVGTLFVVDQSTLLVGVVSRKDLLRASLGKQDLTSLPVNIIMTRMPNIAMCRREDSLYDIAMELIERQIDAMPVVKDTKQGLEVVGRITKTNITRAFVNLVNNE,failed
2,MIILDNLEQFKVVYRDGRKWNRCVEAIENIGNLRDGIMYSIGDSLVYMIEDGIAKNTETFVGNRRYFDIHYYLEGRETVEVASKSELESVQAYSDETDREHLNGNGQKHQLCEGQVAVFDNTKAYKFHGDNRVRKVVLKVTIEDGYFLNK,failed
3,MIILGQALYQKDQFAEAAKCLEQAASKLLDTSPTEVEEVDLLIVASQWAGVSNIRQGKTSEGITHLERVANMKEPDDPKSKAHYLDALVLYSSAIFNEGRREEAAKYLRRVVAYDPSFSELLKQCEEDDTIPTSSSSNSTSKTS,failed
4,MIINDPVKITGIVDILIIIIFTSLGFRGFLRGFIKEISGFAEVFVLILLLYKKTEEFRRFVEPIIELSYIQALLVFFLLIHIGFLILQSLIESIISQLKLLFFNRILGLVLGLLEAFGIIAIVVYIIHSQQIFKPEYFLKESKLLDYLNPGINYLFKISKTK,failed
5,MIIPGIAAAETCPDGYKNVSVCKAEKMVEKEDVFLLDVRTPAEFNKTHIEGTILIPVKNVPAQDPVELSSDELLEVRINEVPADEKILVYCKSGARSAAACSLLVSNGYRKVYNMRGGIDCWLARGCTVDVNADKADELLGTGEFFLLDVRTPAEFNAGYIEGAILIPLKNVPKEDPVELPPEKLLAQCLCEIPENKPILVYCKSGTRSDAARDLLVDSGYRHVYNLEGGILTWKAEGYPTVCPAI,failed
6,MIIRIKHYGEVKIEDSKNLLLNLIENRIGIDNICNGKGTCGKCKVRFRQGVPEATSADLRYLSVEELEEGVRLACQVKPQKGMEIDVTLSNSFDRKLEHHHHHH,not failed
7,MIISELVHNNLRGGNKTHNLELKLPVKPVIGGSSSEDDAIVADASSLMHGDNPGLEFRHKELEAPLIPQRTHSLLYQPQKKVKPEATDSYVSQLTAEADDHLQSPNRDSLYTSMPNLRDSPYPESSPDMAEDLSPSRRSENEDIYYKSMPNLGAGRHLHMCYQISRGNSDGYIIPINKEGCIPEGDVREGQMQLVTSL,failed
8,MIITIARQCGCMGDQIGKALAEKYFIPFYDKDAVCRLAKEKGLYEKYPYFYGEMPLDMLLYADTMAGDDTTDNGKTPRKAMADIIGNENCVVVGRCGNNAFRHREDVISVFLTGNKEKRVELIEKKHNVSPKKAAKIVEDTDLRRRSYHNYYTGEEWGNAEYYDICIDVSKVGEDGALRLIEAYINETGVL,failed
9,MIIVMSRRAAEADIAGVVAFIRSRGLREHISHGDERTVIGAIGDDRVLSVREVQTLPEVEKAVRILDTWKTVSRENRAEDSRVAAKGVAFGGGETVRIAAEPSVWSNADAVFLDPFFTSANLYDTLSADEGRGRCRRLAEQAASAHGAGKPVLVRVRNVRHVEAALNAGADILYLGGGLMSDLAVLNEAGSLNIPLVLCKDKHHSAEDWLNAAEYVVSRGNRHLILGESGVLGHTKGHPYRLDVESIVKVRQISHLPVIANITGLWSRDMPQEILYGLAKAAGACGIVGTCFEKAGG,failed
10,MIIVTGATGKLGRRIVERLLERVPADRVGVSVRDPRKAQDLADRGVRVRQGSFDDPASLVHAFEGAEQLLLVSLDRTGQECVSGHRAAIDAAVKAGVGRILYTSQMGAAHDSRFQACRDHAQTEDLLRATGLPWTALRNGFYASSALQFLESARHTGDIALPADGPVAWTGHDDLAEATAAILAEEHRFEGPTPPLTGPAALDFDTVAEIASQTTGRPFTRTVVPDDAFREQVLAHGAPAPIGNLMLSIFAAARNGEFTAVDSTLAELIGREPATFRTQLEHAWAE,failed
11,MIKEQSFEWLLEGCHRIADVAVAYYPNYAYACSAVKALRRSIAEHACLLKDLTDQGYTARTAHLTPVQIGILLSYWGMPDHVKDMTVKNPYLLVSKKYAK,failed
12,MIKFMSIASGSSGNCYYLSNGNQALLIDAGIPLRSISKALKDHQLPIEGNVVGVLVTHDHADHIRTIGCLGEKFHLPVFATERVHNGINSSRYMDHLPLLSRRNILQEETFRLAGFDITAFPIPHDATENVGYHITAPGFSFTLCTDVGHITDTISHYASKADYLVMEANYDCEMLLSGPYPEFLKERVSGPNGHLSNQETGDFLARTFHPGMKHVWLCHLSKDNNHPDLCWKSIEYRLFSEGIRVGKDMELTVLKRTSPSSLYTLLEDLEHHHHHH,not failed
13,MIKGNKMASFSQVSFSIPQRVIHWAMALLIFFNLLFPDAMAHAYRLMRRGETLTPDQISSANIHAYVGFAILLLAVLRLCLRFFQGVPPHPAEEPRASQIAAKAAHFTFYVLFFILPLSGIAAYYFGIATAGELHSGPFKAVMWVLIAGHVAAVLVHQFYWRTNVLKRMTHG,failed
14,MIKGNNGNRGSSSSGYSADLLVCFPSRTHLALTPKPICSPSRPSDSSTNRRPHHRRQLSKLSGGGGGGHGSPVLWAKQASSKNMGGDEIAEPTSPKVTCAGQIKVRPSKCGGRGKNWQSVMEEIERIHDNRSQSKFFGLKKDVMGFLTCLRNIKFDFRCFGDFRHADVTSDDDEEEDDDDDEEEEVVEGEEEENSKTVFSKWFMVLQEEQNNKDDDKNNNKCDEKRDLEDTETEPAVPPPNALLLMRCRSAPAKSWLEERMKVKTEQEKREEQKEEKETEDQETSMKTKKKDLRSLMEEEKMELVLMRYDTEFYRLSSDIAKETWVVGGIQDPLSRSRSWKN,failed
15,MIKHYLFMAVSQVFFSFFLVLFFISSIVLLISIASVTLVIKVSFLDLVQLFLYSLPGTIFFILPITFFAACALGLSRLSYDHELLVFFSLGVSPKKMTKVFAPLSLLVSAILLVFSLILIPTSKSTYYGFLRQKKDKIDINIRAGEFGQKLGDWLVYVDKTKNNSYDNLVLFSNKSLSQESFILAQKGNINNQNGVFELNLYNGHAYFTQGDKMRKVDFEELHLRNKLKSFNSNDAAYLQGTDYLGYWKKAFGKNANKNQKRRFSQAILVSLFPLASVFLIPLFGIANPRFKTNWSYFYVLGAVGVYFLMVHVISTDLFLMTFFFPFIWAFASYLLFRKFILKRY,failed
16,MIKILETESSLGWGGQENRTARLINHLDPTRFRVYVATPKDSELYKRRQEIRAEFFPVEMRKSYSLKAIWQLYKIIKKERIDIVSTHSGKDAWLGVIAARLAGVKAIRTRHLQTPISSPLSYNLHDKVVCVSDFVKEDLAKRGVQKGRLCTIHTGVDVSKYAPHREGILRRELGLREEEILVGIVAVLRGAKGHKLLLEAFAKLSSSTARLVIIGDGPQRENIALIVEQLNLQERVVMLGHREDVAKIMPDLDIFVLSSSMEALGTAILEASACGVAVLGSNVGGIPECVRENGQLFEAGDSDSLVKNLQALINDTSKRKERGAKGRVLVEEEFSVEAMVRKTEGLYREIITPQKILIVSNTALGDTILSTPLFRETRLALPKAHITALLNPVNAMLFETNPYLDKIELYGGRWRGFLGAWWKLWRRGFDVALLGHSNDPQITPLCLLLGISKIIKIPNHKNPWQRFHHNPPASPIEDQYAVLTRLLTLKYIGIESSNTRLELFLKEEWTTEAKEILRPFGQKKLIGIQMGASNRSRQWFVERWIELAKRIIERDEEVVIVFVGSKNELEEISLVAQALPQDRVFISAGRLSLGAAAALIGELGLLFTPDTGPLHIAVALRVKTISLFAVANPKNSLPDYDQSLHRYIKVDRCCEPCVGKRCAYQKCMEAIGVDEVYEEYKKLQE,failed
17,MIKLSSITAHILDIWHRRNSRSYIAHLRSLGIRIGDGCIFRDPLTTRIDVSRPALVSIGSNVDMNTYFQILTHDWASFVFRNKYHDFVNSSGRVEIGSNIYIGTNVIVLRGVTIGDNCVIGAGSVVTHDIPANSVAVGAPCRVVCSLEHHHHHH,not failed
18,MIKMIVVLRLGHRPERDKRVTTHVALTARAFGADGIIIASEEDEKVKESVEDVVKRWGGPFFIEFNRNWRKVMKEFTGVKVHLTMYGLHVDDVIEELKEKLKKGEDFMIIVGAEKVPREVYELADYNVAIGNQPHSEVAALAVLLDRLLEGKGLKKEFKGAKIKIVPQARGKKVVEVQGYAEQDKAEGKATPGKNWENSGFTGDNP,not failed
